Values belong to the binder of their own block, whether it stands above or below them.
Assays:
[1] = target: T1, human TNF-α (human, UniProt P01375 77-233); assay: ELISA, Fab dilution series on human TNF-α (Example 1; the filing does not say which of its two ELISA formats: hTNF-α-coated plate, or Fab captured on anti-human kappa with 5 nM biotinylated hTNF-α)
T1 construct: It was biotinylated in some screening assays; also called hTNF-α; hTNF

[2] = target: T1, human TNF-α; assay: cell-based or functional assay
[3] = target: T1, human TNF-α; assay: KinExA 3000 kinetic exclusion assay
[4] = target: T1, human TNF-α; assay: calculated from Kd = koff/kon (KinExA)
Method: (§1) Next, binding kinetics of three of the Fab fragments described in Table 4 were determined in a kinetic exclusion assay. Affinity measurements were performed on a KinExA™3000 instrument (Sapidyne Instruments, Inc., Boise, Id.) using Fab fragments (A10K, A9K, and A10P) released from the periplasmic space whose concentration was determined by a quantitative ELISA. Briefly, antigen and antibody fragment were allowed to react in solution and the fraction of unbound reagent was determined by capture and measured on a bead support. Binding kinetics can be determined or calculated from the amount of unbound reagent. For instance, after interaction between TNF-α and a Fab fragment has occurred in solution, binding of the unreacted, free Fab fragment to TNF-α coated beads can be measured on the instrument by detection with a labeled secondary antibody to the Fab fragment (e.g., a goat anti-IgG (heavy and light)). […] For A10K and A10P, the Fab concentration was 10 pM with the human TNF-α concentration beginning at 160 pM and then serially diluted to 0.078 pM with the final tube containing no human TNF-α. A9K incubation was set in a similar manner, with the Fab at a constant concentration of 20 pM and human TNF-α serially diluted beginning at 500 pM with a final concentration of 0.24 pM. After the incubation, the amount of unbound Fab in the equilibrated samples was determined on the KinExA™3000 instrument according to the manufacturer's instructions. Kd values were determined by the instrument software.
To measure kₒₙ, individual Fab fragments at a concentration of 40 pM were mixed with 400 pM of hTNF-α. A series of measurements were taken over a time course. The resulting data was used to calculate the kₒₙ with the instrument software. koff was calculated by using the formula Kd=koff/kₒₙ.

[5] = target: T1, human TNF-α; assay: KinExA 3000 kinetic exclusion assay, 40 pM Fab mixed with 400 pM hTNF-α, time course
Method: (§2) Next, binding kinetics of three of the Fab fragments described in Table 4 were determined in a kinetic exclusion assay. Affinity measurements were performed on a KinExA™3000 instrument (Sapidyne Instruments, Inc., Boise, Id.) using Fab fragments (A10K, A9K, and A10P) released from the periplasmic space whose concentration was determined by a quantitative ELISA. Briefly, antigen and antibody fragment were allowed to react in solution and the fraction of unbound reagent was determined by capture and measured on a bead support. Binding kinetics can be determined or calculated from the amount of unbound reagent. For instance, after interaction between TNF-α and a Fab fragment has occurred in solution, binding of the unreacted, free Fab fragment to TNF-α coated beads can be measured on the instrument by detection with a labeled secondary antibody to the Fab fragment (e.g., a goat anti-IgG (heavy and light)). […] After the incubation, the amount of unbound Fab in the equilibrated samples was determined on the KinExA™3000 instrument according to the manufacturer's instructions. Kd values were determined by the instrument software.
(§3) To measure kₒₙ, individual Fab fragments at a concentration of 40 pM were mixed with 400 pM of hTNF-α. […] The resulting data was used to calculate the kₒₙ with the instrument software. koff was calculated by using the formula Kd=koff/kₒₙ.

[6] = target: T1, human TNF-α; assay: KinExA 3000 kinetic exclusion assay, periplasmic Fab with hTNF-α in solution, 20 h at 20 C
Method: as §1

[7] = target: T1, human TNF-α; assay: KinExA 3000 kinetic exclusion assay, 40 pM Fab mixed with 400 pM hTNF-α, time course; lower end of the printed range for A10K
Method: as §2, §3

T1 sequence (P01375 77-233 limits assumed): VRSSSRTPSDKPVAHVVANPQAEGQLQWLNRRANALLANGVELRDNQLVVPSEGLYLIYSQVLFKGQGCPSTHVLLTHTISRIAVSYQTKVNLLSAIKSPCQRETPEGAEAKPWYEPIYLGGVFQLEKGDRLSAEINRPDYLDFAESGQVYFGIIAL

- EC50 (read off the curve) [1]: ~0.02 µg/mL
B1: 2E7K Fab fragment (Fab, name in Kabat numbering, V domains shown)
VH: EVQLVESGGGLVQPGGSLRLSCAASGFKFSNHWMNWVRQAPGKGLEWVGEIRSKSMNSATHYARSVKGRFTISRDDSKNSLYLQMNSLKTEDTAVYYCARNYYGSTYDHWGQGTLVTVSS
VL: EIVLTQSPDFQSVTPKEKVTITCRASQFVGLSIHWYQQKPDQSPKLLIKYASESRSGVPSRFSGSGSGTDFTLTINSLEAEDAATYYCQQSHSWHFTFGQGTKVEIK

- EC50, L929 cell protection assay (FIG. 10) [2]: ~2.7 pM
B2: A10K IgG (antibody, V domains shown)
VH: EVQLVESGGGLVQPGGSLRLSCAASGFKFSNHWMNWVRQAPGKGLEWVGEIRSKSMNSATHYAESVKGRFTISRDDSKNSLYLQMNSLKTEDTAVYYCARNYYGSTYDHWGQGTLVTVSS
VL: EIVLTQSPDFQSVTPKEKVTITCRASQFVGYSIHWYQQKPDQSPKLLIKYASESRSGVPSRFSGSGSGTDFTLTINSLEAEDAATYYCQQSHSWHFTFGQGTKVEIK

- Kd [3]: 0.01 pM
- koff [3]: 2.6e-08 s⁻¹
- kon [3]: 2.6e+06 M⁻¹ s⁻¹
B3: AME 3-2 antibody (antibody, V domains shown)
VH: EVQLVESGGGLVQPGGSLRLSCAASGFTFRNHWMNWVRQAPGKGLEWVGEIRSKSINSATFYAESVKGRFTISRDDSKNSLYLQMNSLKTEDTAVYYCARNYYGSYYDHWGQGTLVTVSS
VL: DIQMTQSPSSLSASVGDRVTITCVTTQFVGYAIHWYQQKPGKAPKLLIYYASSSRSGVPSRFSGSGSGTDFTLTISSLQPEDFATYYCQQSHGWPFTFGQGTKVEIK

- binding result [1]: binds
B4: hu1 Fab fragment (Fab, V domains shown)
VH: EVQLVESGGGLVQPGGSLRLSCAASGFTFSNHWMNWVRQAPGKGLEWVGEIRSKSINSATHYAESVKGRFTISRDDSKNSLYLQMNSLKTEDTAVYYCARNYYGSTYDHWGQGTLVTVSS
VL: EIVLTQSPDFQSVTPKEKVTITCRASQFVGSSIHWYQQKPDQSPKLLIKYASESMSGVPSRFSGSGSGTDFTLTINSLEAEDAATYYCQQSHSWHFTFGQGTKVEIK
notes: Parent Fab with fully human frameworks

- koff [4]: 8.2e-06 s⁻¹
- kon [5]: 4.1e+06 M⁻¹ s⁻¹
- Kd [6]: 2 pM
- EC50 (read off the curve) [1]: ~0.02 µg/mL
B5: A10P Fab fragment (Fab, name in Kabat numbering, V domains shown)
VH: EVQLVESGGGLVQPGGSLRLSCAASGFPFSNHWMNWVRQAPGKGLEWVGEIRSKSMNSATHYAESVKGRFTISRDDSKNSLYLQMNSLKTEDTAVYYCARNYYGSTYDHWGQGTLVTVSS
VL: EIVLTQSPDFQSVTPKEKVTITCRASQFVGYSIHWYQQKPDQSPKLLIKYASESRSGVPSRFSGSGSGTDFTLTINSLEAEDAATYYCQQSHSWHFTFGQGTKVEIK

- EC50 (read off the curve) [1]: ~0.02 µg/mL
B6: 2C6K Fab fragment (Fab, name in Kabat numbering, V domains shown)
VH: EVQLVESGGGLVQPGGSLRLSCAASGFKFSNHWMNWVRQAPGKGLEWVGEIRSKSINSATHYARSVKGRFTISRDDSKNSLYLQMNSLKTEDTAVYYCARNYYGSTYDHWGQGTLVTVSS
VL: EIVLTQSPDFQSVTPKEKVTITCRASQFVGLSIHWYQQKPDQSPKLLIKYASEYMSGVPSRFSGSGSGTDFTLTINSLEAEDAATYYCQQSHSWHFTFGQGTKVEIK

- EC50, L929 cell protection assay (FIG. 8) [2]: ~25 pM
- EC50, L929 cell protection assay (FIG. 9) [2]: ~67 pM
- koff [4]: 1.96e-05 to 3.76e-05 s⁻¹
- Kd [6]: 3.5 to 7.2 pM
- kon [7]: 3.9e+06 to 7.51e+06 M⁻¹ s⁻¹
- EC50 (read off the curve) [1]: ~0.02 µg/mL
B7: A10K Fab fragment (Fab, V domains shown)
VH: EVQLVESGGGLVQPGGSLRLSCAASGFKFSNHWMNWVRQAPGKGLEWVGEIRSKSMNSATHYAESVKGRFTISRDDSKNSLYLQMNSLKTEDTAVYYCARNYYGSTYDHWGQGTLVTVSS
VL: EIVLTQSPDFQSVTPKEKVTITCRASQFVGYSIHWYQQKPDQSPKLLIKYASESRSGVPSRFSGSGSGTDFTLTINSLEAEDAATYYCQQSHSWHFTFGQGTKVEIK
notes: Fab released from the E. coli periplasm; Mutations against hu1: light S31Y, M55R; heavy T28K, I53M

- EC50 (read off the curve) [1]: ~0.03 µg/mL
B8: 2E7P Fab fragment (Fab, name in Kabat numbering, V domains shown)
VH: EVQLVESGGGLVQPGGSLRLSCAASGFPFSNHWMNWVRQAPGKGLEWVGEIRSKSMNSATHYARSVKGRFTISRDDSKNSLYLQMNSLKTEDTAVYYCARNYYGSTYDHWGQGTLVTVSS
VL: EIVLTQSPDFQSVTPKEKVTITCRASQFVGLSIHWYQQKPDQSPKLLIKYASESRSGVPSRFSGSGSGTDFTLTINSLEAEDAATYYCQQSHSWHFTFGQGTKVEIK

- EC50 (read off the curve) [1]: ~0.02 µg/mL
B9: A9P Fab fragment (Fab, name in Kabat numbering, V domains shown)
VH: EVQLVESGGGLVQPGGSLRLSCAASGFPFSNHWMNWVRQAPGKGLEWVGEIRSKSMNSATHYARSVKGRFTISRDDSKNSLYLQMNSLKTEDTAVYYCARNYYGSTYDHWGQGTLVTVSS
VL: EIVLTQSPDFQSVTPKEKVTITCRASQFVGMSIHWYQQKPDQSPKLLIKYASESKSGVPSRFSGSGSGTDFTLTINSLEAEDAATYYCQQSHSWHFTFGQGTKVEIK

- EC50 (read off the curve) [1]: ~0.02 µg/mL
B10: 2C6P Fab fragment (Fab, name in Kabat numbering, V domains shown)
VH: EVQLVESGGGLVQPGGSLRLSCAASGFPFSNHWMNWVRQAPGKGLEWVGEIRSKSINSATHYARSVKGRFTISRDDSKNSLYLQMNSLKTEDTAVYYCARNYYGSTYDHWGQGTLVTVSS
VL: EIVLTQSPDFQSVTPKEKVTITCRASQFVGLSIHWYQQKPDQSPKLLIKYASEYMSGVPSRFSGSGSGTDFTLTINSLEAEDAATYYCQQSHSWHFTFGQGTKVEIK

- koff [4]: 6.2e-06 s⁻¹
- kon [5]: 2.6e+06 M⁻¹ s⁻¹
- Kd [6]: 2.4 pM
- EC50 (read off the curve) [1]: ~0.02 µg/mL
B11: A9K Fab fragment (Fab, name in Kabat numbering, V domains shown)
VH: EVQLVESGGGLVQPGGSLRLSCAASGFKFSNHWMNWVRQAPGKGLEWVGEIRSKSMNSATHYARSVKGRFTISRDDSKNSLYLQMNSLKTEDTAVYYCARNYYGSTYDHWGQGTLVTVSS
VL: EIVLTQSPDFQSVTPKEKVTITCRASQFVGMSIHWYQQKPDQSPKLLIKYASESKSGVPSRFSGSGSGTDFTLTINSLEAEDAATYYCQQSHSWHFTFGQGTKVEIK

Reference: patent publication US20060269549A1 (APPLIED MOLECULAR EVOLUTION, published 2006)
